The test system of series [1] is adrenomedullin (synthetic human AM).
Series [2] deals with human complement factor H (UniProt P08603).
Sequence of human complement factor H (P08603 19-1231): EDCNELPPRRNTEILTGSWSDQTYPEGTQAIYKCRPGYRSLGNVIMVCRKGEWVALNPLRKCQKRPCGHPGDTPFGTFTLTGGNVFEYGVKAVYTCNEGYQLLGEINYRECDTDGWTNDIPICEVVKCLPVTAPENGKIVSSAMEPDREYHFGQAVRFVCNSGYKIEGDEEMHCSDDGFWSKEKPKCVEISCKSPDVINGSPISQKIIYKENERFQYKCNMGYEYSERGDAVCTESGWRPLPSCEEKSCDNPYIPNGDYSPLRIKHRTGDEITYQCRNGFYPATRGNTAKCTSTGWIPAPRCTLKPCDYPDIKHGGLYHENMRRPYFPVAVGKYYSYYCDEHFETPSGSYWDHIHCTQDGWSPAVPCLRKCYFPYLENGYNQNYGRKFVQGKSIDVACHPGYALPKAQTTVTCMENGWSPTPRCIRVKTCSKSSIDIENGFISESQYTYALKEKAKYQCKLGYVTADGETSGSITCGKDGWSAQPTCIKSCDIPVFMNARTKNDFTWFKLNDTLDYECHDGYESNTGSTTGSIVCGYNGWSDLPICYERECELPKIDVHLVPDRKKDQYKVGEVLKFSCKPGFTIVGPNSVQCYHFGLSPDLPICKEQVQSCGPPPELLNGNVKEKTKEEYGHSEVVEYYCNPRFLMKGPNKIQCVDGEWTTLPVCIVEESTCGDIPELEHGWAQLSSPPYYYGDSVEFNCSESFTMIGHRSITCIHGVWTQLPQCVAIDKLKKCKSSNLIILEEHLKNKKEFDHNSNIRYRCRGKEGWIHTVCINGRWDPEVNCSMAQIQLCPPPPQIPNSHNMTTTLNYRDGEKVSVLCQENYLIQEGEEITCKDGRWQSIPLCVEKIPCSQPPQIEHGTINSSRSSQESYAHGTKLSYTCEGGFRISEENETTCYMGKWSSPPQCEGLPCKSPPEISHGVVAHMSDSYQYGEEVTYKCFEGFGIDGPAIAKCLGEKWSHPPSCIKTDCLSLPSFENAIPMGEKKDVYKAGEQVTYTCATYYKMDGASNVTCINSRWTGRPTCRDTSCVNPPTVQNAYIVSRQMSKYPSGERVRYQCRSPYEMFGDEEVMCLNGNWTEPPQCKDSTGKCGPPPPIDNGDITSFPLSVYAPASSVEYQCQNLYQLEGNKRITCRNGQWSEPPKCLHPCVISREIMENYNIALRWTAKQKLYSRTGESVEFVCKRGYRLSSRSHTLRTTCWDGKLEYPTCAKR

As for human recombinant MMP-9, the “degradation of synthetic AM (gel)” value in series [1] is “The resistance of AM to degradation by MMP-9”. Moreover, the “degradation of factor H (gel)” value in series [2] is on record as “is not a substrate for either one of the MMPs”.

The values above are taken from patent US20050261179.
